Patent publication US20120027722A1 (MEDICAL RESEARCH COUNCIL, published 2012)
Numbering of substitutions follows the chain as printed. Where two headings read alike, the source gives them in different places. No end group written: not given here.

Experiments:
AP33 mimotope peptide H6 [1] = biological target: T1, AP33 mimotope peptide H6; assay: peptide ELISA: biotinylated peptide on streptavidin plate, COS7 supernatant, anti-human kappa HRP, OD 655 nm
T1 construct: captured on streptavidin plates; also called mimotope H6; H6 peptide
T1 peptide: VELRNLGGTWRPGSGK-biotin

Peptide D3 [2] = biological target: T2, Peptide D3; assay: as above
T2 construct: member of the group m28

AP33 mimotope peptide H6 [3] = biological target: T1, AP33 mimotope peptide H6; assay: as above
E2 peptide B1 [4] = biological target: T3, E2 peptide B1 (Hepatitis C virus, genotype 2b (Table 5)); assay: as above
Peptide D3 [5] = biological target: T2, Peptide D3; assay: as above; remark: listed apart in the source
AP33 mimotope peptide H6 [6] = biological target: T1, AP33 mimotope peptide H6; assay: as above
E2 peptide B1 [7] = biological target: T3, E2 peptide B1; assay: as above; remark: listed apart in the source
E2 peptide C2 [8] = biological target: T4, E2 peptide C2 (Hepatitis C virus, genotype 1a (Table 5), not fully specified (residue 16, C-terminus)); assay: as above
T4 peptide: QLINTNGSWHVNGSGK

[9] = biological target: T5, soluble HCV E2 truncated at amino acid 661 (sE2661), His-tagged (Hepatitis C virus (isolate )); assay: SPR (BIAcore), sE2
T5 construct: extracellular domain; also called soluble E2

[10] = biological target: T6, HCV E1E2 heterodimer expressed on the surface of 293T cells (Hepatitis C virus (isolate )); assay: Scatchard analysis, 125I-Fab versus unlabeled Fab on E1E2-transfected 293T cells
T6 construct: whole, on cells; also called cell surface expressed E2; E1E2 Scatchard

[11] = biological target: HCV E1E2 glycoproteins, genotype 1b (Con1) (Hepatitis C virus genotype 1b (Con1), UniProt Q9WMX2 192-383; Q9WMX2 384-746); assay: cell-based or functional assay
[12] = biological target: HCV E1E2 glycoproteins, genotype 2a (J6) (Hepatitis C virus genotype 2a (J6)); assay: cell-based or functional assay
[13] = biological target: HCV E1E2 glycoproteins, genotype 2a isolate JFH1 (on HCVpp) (Hepatitis C virus genotype 2a (JFH1), UniProt Q99IB8 192-383; Q99IB8 384-750); assay: cell-based or functional assay
[14] = biological target: HCV E1E2 glycoproteins, genotype 3a isolate F4/2-35 (on HCVpp) (Hepatitis C virus genotype 3a (F4/2-35)); assay: cell-based or functional assay
[15] = biological target: HCV E1E2 glycoproteins, isolate 2A2.4 (on HCVpp) (Hepatitis C virus genotype 2 (2A2.4)); assay: cell-based or functional assay
[16] = biological target: HCV E1E2 glycoproteins, isolate 4.21.16 (on HCVpp) (Hepatitis C virus genotype 4 (4.21.16)); assay: cell-based or functional assay
[17] = biological target: HCV E1E2 glycoproteins, isolate 6.5.8 (on HCVpp) (Hepatitis C virus genotype 6 (6.5.8)); assay: cell-based or functional assay
[18] = biological target: HCV E1E2 glycoproteins, isolate 1A20.8 (on HCVpp) (Hepatitis C virus genotype 1 (1A20.8)); assay: cell-based or functional assay
[19] = biological target: HCV E1E2 glycoproteins, isolate 1B5.23 (on HCVpp) (Hepatitis C virus genotype 1 (1B5.23)); assay: cell-based or functional assay
[20] = biological target: HCV E1E2 glycoproteins, isolate 2B1.1 (on HCVpp) (Hepatitis C virus genotype 2 (2B1.1)); assay: cell-based or functional assay
[21] = biological target: HCV E1E2 glycoproteins, isolate 5.15.11 (on HCVpp) (Hepatitis C virus genotype 5 (5.15.11)); assay: cell-based or functional assay
[22] = biological target: T6, HCV E1E2 heterodimer expressed on the …; assay: Scatchard analysis, 125I-antibody versus unlabeled antibody on E1E2-transfected 293T cells
[23] = biological target: T5, soluble HCV E2 truncated at amino acid …; assay: SPR (BIAcore A100), antibody captured on anti-human Fc chip, sE2 injected 1.56-50 nM, 1:1 Langmuir fit
Peptide D3 [24] = biological target: T2, Peptide D3; assay: peptide ELISA: biotinylated peptide on streptavidin plate, COS7 supernatant, anti-human kappa HRP, OD 655 nm; remark: listed apart in the source
AP33 mimotope peptide H6 [25] = biological target: T1, AP33 mimotope peptide H6; assay: as above
E2 peptide B1 [26] = biological target: T3, E2 peptide B1; assay: as above; remark: listed apart in the source
E2 peptide C2 [27] = biological target: T4, E2 peptide C2; assay: as above
Peptide D3 [28] = biological target: T2, Peptide D3; assay: as above; remark: listed apart in the source
AP33 mimotope peptide H6 [29] = biological target: T1, AP33 mimotope peptide H6; assay: as above
E2 peptide B1 [30] = biological target: T3, E2 peptide B1; assay: as above; remark: listed apart in the source

B1: humanized AP33 antibody RHb-h/RK2bc (antibody, V domains shown)
VH: QVQLQESGPGLVKPSETLSLTCTVSGDSITSGYWNWIRQPPGRALEYMGYISYSGSTYYNLSLRSRITISRDTSKNQYSLRLSSVTAADTAMYYCALITTTTYAMDYWGQGTTVTVS
VL: EIVLTQSPSSLSASVGDRVTITCRASESVDGYGNSFLHWFQQKPGKAPKLLIYLASNLNSGVPSRFSGSGSRTDFTLTISSLQPEDFATYYCQQNNVDPWTFGQGTKLEIK
notes: also called RHbcdefgh/RK2bc
- EC50 (read off the curve) (AP33 mimotope peptide H6 [1]): ~0.03 µg/mL
- EC50 (read off the curve) (Peptide D3 [2]): ~0.05 µg/mL
- EC50 (read off the curve) (AP33 mimotope peptide H6 [3]): ~0.04 µg/mL
- binding result (E2 peptide B1 [4]): no binding (tested: about 1400 ng/ml)

B2: RHb-h/Vl (humanized heavy chain RHb-h with chimeric light chain) (antibody, V domains shown)
VH: B1 VH
VL: NIVLTQSPVSLAVSLGQRATISCRASESVDGYGNSFLHWFQQKPGQPPKLLIYLASNLNSGVPARFSGSGSRTDFTLTIDPVEADDAATYYCQQNNVDPWTFGGGTKLEIK
notes: also called RHb-h/V1
- EC50 (read off the curve) (Peptide D3 [5]): ~0.02 µg/mL
- EC50 (read off the curve) (AP33 mimotope peptide H6 [6]): ~0.02 µg/mL
- binding result (E2 peptide B1 [7]): no binding (tested: about 500 ng/ml)
- binding result (E2 peptide C2 [8]): binds

B3: RH-C/RK2b Fab (Fab, V domains shown)
VH: QVQLQESGPGLVKPSETLSLTCTVSGDSITSGYWNWIRQPPGRALEWMGYISYSGSTYYNLSLRSRITISRDTSKNQYSLRLSSVTAADTAMYYCALITTTTYAMDYWGQGTTVTVSS
VL: B1 VL with R72G
notes: also called Fab fragment of RH-C/RK2b
- Kd [9]: ~0.5 nM
- Kd [10]: 50 nM

B4: humanized AP33 antibody RH-C/RK2b (antibody, V domains shown)
VH: B3 VH
VL: B1 VL with R72G
notes: also called RH-C antibody
- EC50, neutralization of Con1 HCVpp entry (Huh-7.5, luciferase) [11]: 0.511 µg/mL
- EC50, neutralization of J6 HCVpp entry (Huh-7.5, luciferase) [12]: 0.793 µg/mL
- neutralization of J6 HCVcc infection, fold better than AP33 [12]: ≥ 4.7 fold
- IC50 of HCVpp infection (Huh-7, luciferase) [13]: 0.64 µg/mL
- IC90 of HCVpp infection (Huh-7, luciferase) [13]: 7 µg/mL
- IC50 of HCVpp infection (Huh-7, luciferase) [14]: < 0.41 µg/mL
- IC90 of HCVpp infection (Huh-7, luciferase) [14]: 2.15 µg/mL
- IC50 of HCVpp infection (Huh-7, luciferase) [15]: 0.51 µg/mL
- IC90 of HCVpp infection (Huh-7, luciferase) [15]: 6 µg/mL
- IC50 of HCVpp infection (Huh-7, luciferase) [16]: < 0.41 µg/mL
- IC90 of HCVpp infection (Huh-7, luciferase) [16]: 0.92 µg/mL
- IC50 of HCVpp infection (Huh-7, luciferase) [17]: < 0.41 µg/mL
- IC90 of HCVpp infection (Huh-7, luciferase) [17]: 1.8 µg/mL
- IC50 of HCVpp infection (Huh-7, luciferase) [18]: 1.6 µg/mL
- IC90 of HCVpp infection (Huh-7, luciferase) [18]: 15 µg/mL
- IC50 of HCVpp infection (Huh-7, luciferase) [19]: 0.9 µg/mL
- IC90 of HCVpp infection (Huh-7, luciferase) [19]: 8.3 µg/mL
- IC50 of HCVpp infection (Huh-7, luciferase) [20]: 3 µg/mL
- IC90 of HCVpp infection (Huh-7, luciferase) [20]: > 15 µg/mL
- IC50 of HCVpp infection (Huh-7, luciferase) [21]: 0.053 µg/mL
- IC90 of HCVpp infection (Huh-7, luciferase) [21]: 0.82 µg/mL
- Kd [22]: 5 nM
- Kd [23]: 3.8 nM

B5: AP33 RH-B/RK2bc (antibody, V domains shown)
VH: B3 VH with T30S, W47Y
VL: B1 VL
notes: COS7 supernatant
- binding result (Peptide D3 [24]): binds
- binding result (AP33 mimotope peptide H6 [25]): binds
- binding result (E2 peptide B1 [26]): no binding (tested: about 800 ng/ml)
- binding result (E2 peptide C2 [27]): binds

B6: humanized AP33 antibody RH-H/RK2bc (antibody, V domains shown)
VH: B1 VH with L97R
VL: B1 VL
- EC50 (read off the curve) (Peptide D3 [28]): ~0.04 µg/mL
- EC50 (read off the curve) (AP33 mimotope peptide H6 [29]): ~0.03 µg/mL
- binding result (E2 peptide B1 [30]): no binding (tested: about 1000 ng/ml)
